Assay results taken from patent publication US20250215403A1, “Compositions and Methods for Cardiac Tissue Regeneration” (Temple University - Of The Commonwealth System Of Higher …, priority 2022, published 2025).

Experiments:
[1] = Long-term survival of mice post-MI; assay type: in vivo, mouse; details: Luc vs PSAT1 modRNA
Description: All animal procedures were performed under protocols approved by the Temple University Animal Care and Use Committee. Male and female C57BL6 mice were used. Different modRNAs (100 μg/heart) were injected directly into the myocardium in open chest surgery. Three to ten animals used for each experiment. For mice survival, C57BL6 mice (10-12-weeks-old) treated with Luc or PSAT1 modRNAs (n=10) post induction of MI and were followed for the indicated time. Deaths were monitored and documented over time. Tamoxifen-inducible CM-restricted MADM mice (α-MHC-MADM mice) mice were generated by crossing MADM mice (Jackson laboratory) to […].^Tg(Myh6-cre/Esr1*) 1Jmk/J (Cat no. 005657) mice to get α-MHC-MADM mice (Yuko, A. E., et al., 2021, Redox Biology, 47:102162). Tamoxifen (Sigma-Aldrich) was dissolved in sesame oil at 10 mg/ml as stock solution. To induce Cre activation, tamoxifen was administered to mice by intraperitoneal (IP) injection five times (48 h interval between administrations) at 40 mg/kg body weight for adult mice (Yuko, A. E., et al., 2021, Redox Biology, 47:102162). The tissues were harvested at mentioned time for analysis.

[2] = tested on: serine synthesis pathway (SSP); assay: Serine and glycine levels in mouse heart post-MI; assay type: in vivo; details: two days post-MI; HPLC study; vs Luc modRNA
[3] = Mouse MI model: echocardiography of cardiac function 28 days post-MI; assay type: in vivo
Description: In vivo transfection of modRNA was done as described previously in a recent method paper (Magadum A., et al., Circulation. 2020, 141 (15): 1249-1265; Sultana N., et al., Mol Ther, 2017, 25 (6): 1306-1315) using sucrose citrate buffer containing 10 μl of sucrose in nuclease-free water (0.3 g/ml), 10 μl of citrate (0.1M pH-7; Sigma) mixed with 10 μl of different concentrations of modRNA in saline to a total volume of 30 μl. Immediately after LAD ligation, mice received an intra-myocardial injection of modRNA (100 μg) in total volume of 30 μL at 3 different sites (mid-anterior×2 places and apical anterior) in the peri-infarct area (Magadum A., et al., Circulation. 2020, 141 (15): 1249-1265; Magadum, A., et al., 2021, Advanced Science, 9:2004661). For in vitro transfection, RNAiMAX transfection reagent (Life Technologies) was used according to manufacturer's recommendation (Magadum A., et al., Circulation. 2020, 141 (15): 1249-1265; Sultana N., et al., Mol Ther, 2017, 25 (6): 1306-1315).
All surgical and experimental procedures with mice were performed in accordance with protocols approved by Institutional Animal Care and Use Committees at Temple University Animal Care and Use Committee (IACUC). C57BL6 or CM-specific MADM mice (8-12-weeks-old) were anesthetized with isoflurane. MI was induced by permanent ligation of the LAD, as previously described (Garikipati, V. N. S., et al., 2019, Nature Communications, 10:4317). Briefly, the left thoracic region was shaved and sterilized. After intubation, the heart was exposed through a left thoracotomy. A suture was placed to ligate the LAD. The thoracotomy and skin were sutured closed in layers. Excess air was removed from the thoracic cavity, and the mouse was removed from ventilation when normal breathing was established. In order to determine the effect of modRNA on cardiovascular outcome after MI, modRNAs (100 μg/heart) were injected into the infarct zone immediately after LAD ligation (Magadum A., et al., Circulation. 2020, 141 (15): 1249-1265). For examination of heart histology, hearts were collected at the end of each study, quickly washed in PBS, weighed, and fixed in 4% PFA for cryo-sectioning and immunostainings. In all experiments, the surgeon was blinded to the treatment group. For assessment of heart histology, hearts were collected at the end of each study. The hearts were excised, briefly washed in PBS, perfused with perfusion buffer, weighed and fixed in 4% PFA at 4° C. overnight. The heart blocks were transverse sectioned at 6-8 μm using cryostat. The heart sections were further processed for histological evaluation using immunostaining (see below) or histological scar staining using Masson's trichrome staining kit (Sigma) according to standard procedures. Measuring the ratio of heart weight to body weight was done using a scale. This ratio was calculated as the heart tissue weight relative to the mouse total body weight in grams (g).
Mice underwent surgery to ligate the left anterior descending coronary artery as reported previously, followed by intramyocardial administration of exosomes or EVs (1×10^9) from hiPSC cells and IMR-90 cells suspended in PBS into the left ventricular wall (border zone) at two different locations and at the heart apex at one location immediately after left anterior descending ligation (Yue, Y., et al., 2020, Circulation Research, 126:315-329). The saline group underwent the same surgery but received saline without exosomes. Tissue was harvested at 7- or 28-days post-MI for histological analysis.

B1: PSAT1 modRNA: modified mRNA with N1-methylpseudouridine, transcribed in vitro, encoding phosphoserine aminotransferase 1 (ORF SEQ ID NO: 1, RNA SEQ ID NO: 2) (nucleic acid)
chain: AUGGAAGCCACCAAGCAAGUGGUUAACUUUGGGCCCGGGCCUGCCAAGCUGCCACACUCGGUAUUGUUGGAGAUCCAGAAGCAGCUACUAGACUACAGAGGACUCGGCAUCAGUGUGCUCGAAAUGAGUCACAGGUCAUCAGAUUUUGCCAAGAUUAUUGGCAAUACAGAGAAUCUUGUGAGGGAAUUGCUAGCUGUUCCCAACAACUACAAGGUGAUCUUUGUACAAGGAGGUGGGUCUGGCCAGUUCAGUGCUGUCCCCUUAAAUCUGAUUGGCCUGAAAGCUGGAAGGAGUGCUGACUACGUGGUGACCGGAGCUUGGUCAGCUAAGGCUGCGGAAGAAGCCAAGAAGUUUGGAACGGUGAACAUUGUCCACCCUAAACUUGGAAGUUACACAAAAAUUCCAGACCCAAGCACCUGGAACCUCAACCCGGACGCCUCCUAUGUAUACUUCUGUGCAAACGAGACUGUGCACGGGGUGGAGUUUGACUUCGUACCUGACGUCAAGGGAGCGGUGCUGGUCUGUGACAUGUCCUCAAACUUCUUAUCCAGGCCGGUGGAUGUUUCCAAGUUUGGUGUGAUUUUCGCUGGUGCUCAGAAGAAUGUUGGCUCUGCCGGGGUGACGGUGGUGAUUGUCCGGGAUGACCUGCUGGGGUUCUCGCUCAGAGAGUGCCCAUCAGUCCUUGACUACAAAGUGCAGGCUGGGAACAACUCUUUGUAUAACACACCUCCGUGCUUCAGCAUCUACGUCAUGGGCAUGGUCCUGGAAUGGAUCAAGAACAACGGCGGGGCCGCAGCCAUGGAGAAGCUCAGCUCCAUCAAAUCCCAAAUGAUUUAUGAGAUCAUUGAUAAUUCUCAAGGAUUUUAUGUAUGCCCAGUGGAGCGCCAGAAUAGAAGCAGGAUGAACAUCCCAUUUCGCAUUGGCAACGCCAAAGGAGACGAAGCUUUGGAAAAGCGGUUUCUUGACAAGGCGGUAGAACUCAACAUGAUCUCCUUGAAGGGGCACAGGUCAGUGGGAGGCAUUCGUGCCUCUCUGUAUAACGCUGUCACAACCGAAGACGUUGAGAAGCUGGCGGCCUUCAUGAAGAAUUUCUUGGAGAUGCAUCAGCUGUGA
modifications: N1-methylpseudouridine
- mice survival [1]: significantly improved
- glycine levels in heart [2]: increase
- serine levels in heart [2]: increase
- LV end-diastolic posterior wall thickness [3]: significantly increased
- LV end-systolic posterior wall thickness [3]: significantly increased
- Fractional Shortening (% FS) ([3]; compared to Luc): significantly improved
- LVIDd (left ventricular internal diameter end-diastole) ([3]; compared to control): Improvements
- LVIDs (left ventricular internal diameter end-systole) ([3]; compared to control): Improvements
- Ejection Fraction (% EF) ([3]; myocardial delivery, compared to Luc): significantly improved
